# Measurements from paper doi:10.1101/2024.12.30.629670.
# Where “and” joins values, the source holds several entries; their conditions need not be identical. Identical values can stand only once.
# Target: AVRPM3^b2/c2 lacking the signal peptide, C-terminally FLAG- or HA-tagged (Blumeria graminis f.sp. tritici)
# Experiment: cross-linking
substance,measurement,value
"AVRPM3^b2/c2 lacking the signal peptide, C-terminally FLAG- or HA-tagged (natural protein)",stoichiometry N,2 and 3
